Holding throughout (assay): SPR
For orientation: In SPR one partner is held on a chip, and binding of the other changes the refractive index at the surface.

One assay has as its target T1, recombinant human IFNα14 (human, UniProt P01570 24-189).
T1 chain: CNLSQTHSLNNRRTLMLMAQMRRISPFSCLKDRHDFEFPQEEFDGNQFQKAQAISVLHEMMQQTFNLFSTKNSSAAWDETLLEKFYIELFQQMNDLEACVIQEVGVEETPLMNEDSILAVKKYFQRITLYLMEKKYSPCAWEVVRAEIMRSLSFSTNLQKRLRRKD

Another assay deals with T2, recombinant human IFNα4 (human, UniProt P05014 24-189).
T2 chain: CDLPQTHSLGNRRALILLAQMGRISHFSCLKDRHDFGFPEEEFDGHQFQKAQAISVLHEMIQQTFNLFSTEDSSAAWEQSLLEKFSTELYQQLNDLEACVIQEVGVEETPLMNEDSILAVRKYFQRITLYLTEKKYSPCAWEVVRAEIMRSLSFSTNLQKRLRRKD

Another assay addresses recombinant human IFNω (human, UniProt P05000 22-195).

Sequence of recombinant human IFNω (P05000 22-195): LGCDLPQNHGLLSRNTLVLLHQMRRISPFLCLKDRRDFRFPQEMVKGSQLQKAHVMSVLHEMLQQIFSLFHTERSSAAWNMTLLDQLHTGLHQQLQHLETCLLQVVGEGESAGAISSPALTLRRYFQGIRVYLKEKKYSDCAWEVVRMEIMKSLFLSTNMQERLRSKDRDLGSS

B1: 19D11, APS1/APECED patient-derived anti-IFN monoclonal antibody (antibody, V domains shown)
VH: QVQLVQSGAEVKRPGSSVRVSCRASGDTFSSYPISWVRQAPGQGLEWMGRILPALGVTNYAQNFRGRITITADKSPLTAYLELSSLRFEDTAVYYCASPSADIIPSILGTTLFAFWGQGSLVTVSS
VL: EIVLTQSPGTLSLSPGEGATLSCRASQNVSRHYLTWYQQKPGQSPRLLIYGGSSRATGVPDRFSGGGSGTDFTLTISRLEPEDFAVFYCQSYHSPPPVYTFGQGTKVEIK
As to B1, the Kd with recombinant human IFNα14 worked out at 0.0611 pM; with recombinant human IFNα4, 0.263 pM.

B2: 26B9, APS1/APECED patient-derived anti-IFN monoclonal antibody (antibody, V domains shown)
VH: QILLQESGPGLVKPTETLSLTCSVSGDSISDSSHYWAWIRQPPGKGPEWIGSVYFSSMTHYNPSLKSRVSISVDKPKNQFSLKVTSVTVADTATYYCARQALARVGAMNWFDPWGQGSLVTVSS
VL: DIIMTQSPDSLPVSLGEGVTINCKSSQSVFFTSSNKSCLAWYQQKPGKSPKLLIYWASTRQSGVPDRFRGSGSGTDFSLTITSLQAEDVAVYFCQQCQTSPPTFGGGTRLEIK
In the case of B2, the Kd with recombinant human IFNω was 0.125 pM; with recombinant human IFNα4, 0.0375 pM.

One may read the Kd as the constant that tells how readily two partners part at equilibrium.

The record behind these values is publication PMC4967814 (2016).
